US20160264649A1

Experiments:
Assay in all cases: cell-based or functional assay
[1] = target: HIV-1 MGRM-C-017 Env on pseudovirus (HIV-1)
[2] = target: HIV-1 LAVIC_18 Env on pseudovirus (HIV-1)
[3] = target: aMLV envelope (negative control pseudovirus)
[4] = target: HIV-1 PVO.4 (Acute) Env on pseudovirus (HIV-1)
[5] = target: HIV-1 MGRM-AG-001 Env (HIV-1)
[6] = target: HIV-1 MGRM-C-015 Env on pseudovirus (HIV-1)
[7] = target: HIV-1 MGRM-F1-014 Env (HIV-1)
[8] = target: HIV-1 MGRM-C-007 Env on pseudovirus (HIV-1)
[9] = target: HIV-1 LAVI_C3 Env on pseudovirus (HIV-1)
[10] = target: HIV-1 NL43 Env on pseudovirus (HIV-1)
[11] = target: HIV-1 LAVI_C22 Env on pseudovirus (HIV-1)
[12] = target: HIV-1 92BR020 Env on pseudovirus (HIV-1)
[13] = target: HIV-1 MGRM-F1-023 Env (HIV-1)
[14] = target: HIV-1 MGRM-AG-008 Env (HIV-1)
[15] = target: HIV-1 QH0692.42 (Acute) Env on pseudovirus (HIV-1)
[16] = target: HIV-1 MGRM-G-001 Env (HIV-1)
[17] = target: HIV-1 MGRM-F1-012 Env (HIV-1)
[18] = target: HIV-1 MGRM-D-026 Env (HIV-1)
[19] = target: HIV-1 MGRM-G-011 Env (HIV-1)
[20] = target: HIV-1 MGRM-Chronic-B-002 Env on pseudovirus (HIV-1)
[21] = target: HIV-1 MGRM-D-029 Env (HIV-1)
[22] = target: HIV-1 MGRM-D-028 Env (HIV-1)
[23] = target: HIV-1 APV_13 Env on pseudovirus (HIV-1)
[24] = target: HIV-1 94UG114 Env (HIV-1)
[25] = target: HIV-1 6535.3 (Acute) Env on pseudovirus (HIV-1)
[26] = target: HIV-1 JRCSF Env (HIV-1) (UniProt P20871)
[27] = target: HIV-1 MGRM-AE-004 Env (HIV-1)
[28] = target: HIV-1 MGRM-Chronic-B-020 Env on pseudovirus (HIV-1)
[29] = target: HIV-1 MGRM-AE-005 Env (HIV-1)
[30] = target: HIV-1 MGRM-AG-003 Env (HIV-1)
[31] = target: HIV-1 MGRM-Chronic-B-017 Env on pseudovirus (HIV-1)
[32] = target: HIV-1 SC422661.8 (Acute) Env on pseudovirus (HIV-1)
[33] = target: HIV-1 MGRM-Chronic-B-010 Env on pseudovirus (HIV-1)
[34] = target: HIV-1 MGRM-D-021 Env (HIV-1)
[35] = target: HIV-1 MGRM-D-018 Env (HIV-1)
[36] = target: HIV-1 MGRM-C-024 Env on pseudovirus (HIV-1)
[37] = target: HIV-1 MGRM-AE-003 Env (HIV-1)
[38] = target: HIV-1 TRO.11 (Acute) Env on pseudovirus (HIV-1)
[39] = target: HIV-1 IAVI-C3 Env (HIV-1)
[40] = target: HIV-1 MGRM-D-020 Env (HIV-1)
[41] = target: HIV-1 98IN022 Env on pseudovirus (HIV-1)
[42] = target: HIV-1 MGRM-D-014 Env (HIV-1)
[43] = target: HIV-1 CAAN.A2 (Acute) Env on pseudovirus (HIV-1)
[44] = target: HIV-1 MGRM-Chronic-B-018 Env on pseudovirus (HIV-1)
[45] = target: HIV-1 MGRM-D-003 Env (HIV-1)
[46] = target: HIV-1 MGRM-C-006 Env on pseudovirus (HIV-1)
[47] = target: HIV-1 MGRM-D-013 Env (HIV-1)
[48] = target: HIV-1 MGRM-D-019 Env (HIV-1)
[49] = target: HIV-1 92UG046 Env (HIV-1)
[50] = target: HIV-1 MGRM-D-022 Env (HIV-1)
[51] = target: HIV-1 TRJ0.58 (Acute) Env on pseudovirus (HIV-1)
[52] = target: HIV-1 MGRM-D-001 Env (HIV-1)

With 2G12 (antibody) the IC50 [1] was > 50 µg/mL, the IC50 [2] was > 50 µg/mL and the IC50 (pseudovirus neutralization) [3] was > 50 µg/mL. For the same substance, the IC50 [4] was 0.8 µg/mL, the IC50 (µg/ml), pseudovirus neutralization [5] was 0.69 µg/mL and the IC50 [6] was 1.75 µg/mL. For the same substance, the IC50 (pseudovirus neutralization) [7] was > 50 µg/mL, the IC50 [8] was > 50 µg/mL and the IC50 [9] was > 50 µg/mL. The IC50 [10] was 0.49 µg/mL, the IC50 [11] was > 50 µg/mL and the IC50 [12] was 4.84 µg/mL. For the same substance, the IC50 (pseudovirus neutralization) [13] was 9.23 µg/mL, the IC50 (µg/ml), pseudovirus neutralization [14] was > 50 µg/mL and the IC50 [15] was 4.39 µg/mL. For the same substance, the IC50 (µg/ml), pseudovirus neutralization [16] was > 50 µg/mL, the IC50 (pseudovirus neutralization) [17] was 1.81 µg/mL and the IC50 (µg/ml), pseudovirus neutralization [18] was > 50 µg/mL. For the same substance, the IC50 (µg/ml), pseudovirus neutralization [19] was > 50 µg/mL, the IC50 [20] was > 50 µg/mL and the IC50 (µg/ml), pseudovirus neutralization [21] was > 50 µg/mL. The IC50 (µg/ml), pseudovirus neutralization [22] was > 50 µg/mL, the IC50 [23] was 9.24 µg/mL and the IC50 (µg/ml), pseudovirus neutralization [24] was 13.9 µg/mL. The IC50 [25] was 3.85 µg/mL, the neutralization IC50 [26] was 0.66 µg/mL and the neutralization IC90 [26] was 5.38 µg/mL. For the same substance, the IC50 (µg/ml), pseudovirus neutralization [27] was > 50 µg/mL, the IC50 [28] was 0.2 µg/mL and the IC50 (µg/ml), pseudovirus neutralization [29] was > 50 µg/mL. For the same substance, the IC50 (µg/ml), pseudovirus neutralization [30] was > 50 µg/mL, the IC50 [31] was > 50 µg/mL and the IC50 [32] was 0.84 µg/mL. For the same substance, the IC50 [33] was 1.5 µg/mL, the IC50 (µg/ml), pseudovirus neutralization [34] was 23 µg/mL and the IC50 (µg/ml), pseudovirus neutralization [35] was 0.12 µg/mL. The IC50 [36] was > 50 µg/mL, the IC50 (µg/ml), pseudovirus neutralization [37] was > 50 µg/mL and the IC50 [38] was 0.29 µg/mL. The neutralization IC50 [39] was > 50 µg/mL, the neutralization IC90 [39] was > 50 µg/mL and the IC50 (µg/ml), pseudovirus neutralization [40] was > 50 µg/mL. The IC50 [41] was > 50 µg/mL, the IC50 (µg/ml), pseudovirus neutralization [42] was > 50 µg/mL and the IC50 [43] was > 50 µg/mL. The IC50 [44] was > 50 µg/mL, the IC50 (µg/ml), pseudovirus neutralization [45] was > 50 µg/mL and the IC50 [46] was > 50 µg/mL. For the same substance, the IC50 (µg/ml), pseudovirus neutralization [47] was > 50 µg/mL, the IC50 (µg/ml), pseudovirus neutralization [48] was > 50 µg/mL and the IC50 (µg/ml), pseudovirus neutralization [49] was > 50 µg/mL. The IC50 (µg/ml), pseudovirus neutralization [50] was > 50 µg/mL, the IC50 [51] was > 50 µg/mL and the IC50 (µg/ml), pseudovirus neutralization [52] was > 50 µg/mL.
1495_C14 (PGC14) (antibody) was tested, and the IC50 [1] was > 50 µg/mL, the IC50 [2] was > 50 µg/mL and the IC50 (pseudovirus neutralization) [3] was > 50 µg/mL. For the same substance, the IC50 [4] was > 50 µg/mL, the IC50 (µg/ml), pseudovirus neutralization [5] was > 50 µg/mL and the IC50 [6] was > 50 µg/mL. For the same substance, the IC50 (pseudovirus neutralization) [7] was > 50 µg/mL, the IC50 [8] was > 50 µg/mL and the IC50 [9] was 12 µg/mL. It also gave an IC50 [10] of 40 µg/mL, an IC50 [11] of 25 µg/mL and an IC50 [12] of 4 µg/mL. The IC50 (pseudovirus neutralization) [13] was > 50 µg/mL, the IC50 (µg/ml), pseudovirus neutralization [14] was 45 µg/mL and the IC50 [15] was > 50 µg/mL. The IC50 (µg/ml), pseudovirus neutralization [16] was > 50 µg/mL, the IC50 (pseudovirus neutralization) [17] was > 50 µg/mL and the IC50 (µg/ml), pseudovirus neutralization [18] was > 50 µg/mL. For the same substance, the IC50 (µg/ml), pseudovirus neutralization [19] was > 50 µg/mL, the IC50 [20] was > 50 µg/mL and the IC50 (µg/ml), pseudovirus neutralization [21] was > 50 µg/mL. For the same substance, the IC50 (µg/ml), pseudovirus neutralization [22] was > 50 µg/mL, the IC50 [23] was > 50 µg/mL and the IC50 (µg/ml), pseudovirus neutralization [24] was > 50 µg/mL. The IC50 [25] was 35 µg/mL, the neutralization IC50 [26] was > 50 µg/mL and the IC50 (µg/ml), pseudovirus neutralization [27] was > 50 µg/mL. For the same substance, the IC50 [28] was > 50 µg/mL, the IC50 (µg/ml), pseudovirus neutralization [29] was > 50 µg/mL and the IC50 (µg/ml), pseudovirus neutralization [30] was > 50 µg/mL. The IC50 [31] was > 50 µg/mL, the IC50 [32] was > 50 µg/mL and the IC50 [33] was 27 µg/mL. For the same substance, the IC50 (µg/ml), pseudovirus neutralization [34] was > 50 µg/mL, the IC50 (µg/ml), pseudovirus neutralization [35] was > 50 µg/mL and the IC50 [36] was > 50 µg/mL. For the same substance, the IC50 (µg/ml), pseudovirus neutralization [37] was > 50 µg/mL, the IC50 [38] was > 50 µg/mL and the neutralization IC50 [39] was > 50 µg/mL. For the same substance, the IC50 (µg/ml), pseudovirus neutralization [40] was > 50 µg/mL, the IC50 [41] was 9 µg/mL and the IC50 (µg/ml), pseudovirus neutralization [42] was 48 µg/mL. For the same substance, the IC50 [43] was > 50 µg/mL, the IC50 [44] was > 50 µg/mL and the IC50 (µg/ml), pseudovirus neutralization [45] was > 50 µg/mL. For the same substance, the IC50 [46] was > 50 µg/mL, the IC50 (µg/ml), pseudovirus neutralization [47] was > 50 µg/mL and the IC50 (µg/ml), pseudovirus neutralization [48] was > 50 µg/mL. For the same substance, the IC50 (µg/ml), pseudovirus neutralization [49] was > 50 µg/mL, the IC50 (µg/ml), pseudovirus neutralization [50] was > 50 µg/mL and the IC50 [51] was > 50 µg/mL. For the same substance, the IC50 (µg/ml), pseudovirus neutralization [52] was > 50 µg/mL.
